Laboratory results from IntAct's records for PubMed 23357641.

B1: Nephronectin (Mus musculus), Q91V88 (parent)
chain: MAVLLAAVLASSLYLQVAADFDGRWPRQIVSSIGLCRYGGRIDCCWGWARQSWGQCQPVCQPQCKHGECVGPNKCKCHPGFAGKTCNQDLNECGLKPRPCKHRCMNTFGSYKCYCLNGYMLLPDGSCSSALSCSMANCQYGCDVVKGQVRCQCPSPGLQLAPDGRTCVDIDECATGRVSCPRFRQCVNTFGSYICKCHTGFDLMYIGGKYQCHDIDECSLGQHQCSSYARCYNIHGSYKCQCRDGYEGDGLNCVYIPKVMIEPSGPIHMPERNGTISKGDGGHANRIPDAGSTRWPLKTPYIPPVITNRPTSKPTTRPTPNPTPQPTPPPPPPLPTEPRTTPLPPTPERPSTRPTTIAPATSTTTRVITVDNRIQTDPQKPRGDVFIPRQPTNDLFEIFEIERGVSADEEVKDDPGILIHSCNFDHGLCGWIREKDSDLHWETARDPAGGQYLTVSAAKAPGGKAARLVLRLGHLMHSGDLCLSFRHKVTGLHSGTLQVFVRKHGTHGAALWGRNGGHGWRQTQITLRGADVKSVIFKGEKRRGHTGEIGLDDVSLKRGRC

Variants of: B1
Conditions: with agrin_human AGRN

Effect of a mutation on the interaction, decreasing interaction:
MAVLLAAVLASSLYLQVAADFDGRWPRQIVSSIGLCRYGGRIDCCWGWARQSWGQCQPVCQPQCKHGECVGPNKCKCHPGFAGKTCNQDLNECGLKPRPCKHRCMNTFGSYKCYCLNGYMLLPDGSCSSALSCSMANCQYGCDVVKGQVRCQCPSPGLQLAPDGRTCVDIDECATGRVSCPRFRQCVNTFGSYICKCHTGFDLMYIGGKYQCHDIDECSLGQHQCSSYARCYNIHGSYKCQCRDGYEGDGLNCVYIPKVMIEPSGPIHMPERNGTISKGDGGHANRIPDAGSTRWPLKTPYIPPVITNRPTSKPTTRPTPNPTPQPTPPPPPPLPTEPRTTPLPPTPERPSTRPTTIAPATSTTTRVITVDNRIQTDPQKPRGDVFIPRQPTNDLFEIFEIERGVSADEEVKDDPGILIHSCNFDHGLCGWIREKDSDLHWETARDPAGGQYLTVSAAKAPGGKAARLVLRLGHLMHSGDLCLSFRHKVTGLHSGTLQVFVRKHGTHGAALWGRNGGHGWRQTQITLRGADVKSVIFKGEKRRGHTGEIGLDDVSLAAAAC [K557A;R558A;G559A;R560A]
MAVLLAAVLASSLYLQVAADFDGRWPRQIVSSIGLCRYGGRIDCCWGWARQSWGQCQPVCQPQCKHGECVGPNKCKCHPGFAGKTCNQDLNECGLKPRPCKHRCMNTFGSYKCYCLNGYMLLPDGSCSSALSCSMANCQYGCDVVKGQVRCQCPSPGLQLAPDGRTCVDIDECATGRVSCPRFRQCVNTFGSYICKCHTGFDLMYIGGKYQCHDIDECSLGQHQCSSYARCYNIHGSYKCQCRDGYEGDGLNCVYIPKVMIEPSGPIHMPERNGTISKGDGGHANRIPDAGSTRWPLKTPYIPPVITNRPTSKPTTRPTPNPTPQPTPPPPPPLPTEPRTTPLPPTPERPSTRPTTIAPATSTTTRVITVDNRIQTDPQKPRGDVFIPRQPTNDLFEIFEIERGVSADEEVKDDPGILIHSCNFDHGLCGWIREKDSDLHWETAADPAGGQYLTVSAAKAPGGKAARLVLRLGHLMHSGDLCLSFRHKVTGLHSGTLQVFVRKHGTHGAALWGRNGGHGWRQTQITLRGADVKSVIFKGEKRRGHTGEIGLDDVSLKRGRC [R445A]
MAVLLAAVLASSLYLQVAADFDGRWPRQIVSSIGLCRYGGRIDCCWGWARQSWGQCQPVCQPQCKHGECVGPNKCKCHPGFAGKTCNQDLNECGLKPRPCKHRCMNTFGSYKCYCLNGYMLLPDGSCSSALSCSMANCQYGCDVVKGQVRCQCPSPGLQLAPDGRTCVDIDECATGRVSCPRFRQCVNTFGSYICKCHTGFDLMYIGGKYQCHDIDECSLGQHQCSSYARCYNIHGSYKCQCRDGYEGDGLNCVYIPKVMIEPSGPIHMPERNGTISKGDGGHANRIPDAGSTRWPLKTPYIPPVITNRPTSKPTTRPTPNPTPQPTPPPPPPLPTEPRTTPLPPTPERPSTRPTTIAPATSTTTRVITVDNRIQTDPQKPRGDVFIPRQPTNDLFEIFEIERGVSADEEVKDDPGILIHSCNFDHGLCGWIREKDSDLHWETARDPAGGQYLTVSAAKAPGGKAARLVLRLGHLMHSGDLCLSFRHKVTGLHSGTLQVFVAAAGTHGAALWGRNGGHGWRQTQITLRGADVKSVIFKGEKRRGHTGEIGLDDVSLKRGRC [R502A;K503A;H504A]
MAVLLAAVLASSLYLQVAADFDGRWPRQIVSSIGLCRYGGRIDCCWGWARQSWGQCQPVCQPQCKHGECVGPNKCKCHPGFAGKTCNQDLNECGLKPRPCKHRCMNTFGSYKCYCLNGYMLLPDGSCSSALSCSMANCQYGCDVVKGQVRCQCPSPGLQLAPDGRTCVDIDECATGRVSCPRFRQCVNTFGSYICKCHTGFDLMYIGGKYQCHDIDECSLGQHQCSSYARCYNIHGSYKCQCRDGYEGDGLNCVYIPKVMIEPSGPIHMPERNGTISKGDGGHANRIPDAGSTRWPLKTPYIPPVITNRPTSKPTTRPTPNPTPQPTPPPPPPLPTEPRTTPLPPTPERPSTRPTTIAPATSTTTRVITVDNRIQTDPQKPRGDVFIPRQPTNDLFEIFEIERGVSADEEVKDDPGILIHSCNFDHGLCGWIREKDSDLHWETARDPAGGQYLTVSAAKAPGGKAARLVLRLGHLMHSGDLCLSFRHKVTGLHSGTLQVFVRKHGTHGAALWGRNGGHGWRQTQITLAGADVKSVIFKGEKRRGHTGEIGLDDVSLKRGRC [R528A]
MAVLLAAVLASSLYLQVAADFDGRWPRQIVSSIGLCRYGGRIDCCWGWARQSWGQCQPVCQPQCKHGECVGPNKCKCHPGFAGKTCNQDLNECGLKPRPCKHRCMNTFGSYKCYCLNGYMLLPDGSCSSALSCSMANCQYGCDVVKGQVRCQCPSPGLQLAPDGRTCVDIDECATGRVSCPRFRQCVNTFGSYICKCHTGFDLMYIGGKYQCHDIDECSLGQHQCSSYARCYNIHGSYKCQCRDGYEGDGLNCVYIPKVMIEPSGPIHMPERNGTISKGDGGHANRIPDAGSTRWPLKTPYIPPVITNRPTSKPTTRPTPNPTPQPTPPPPPPLPTEPRTTPLPPTPERPSTRPTTIAPATSTTTRVITVDNRIQTDPQKPRGDVFIPRQPTNDLFEIFEIERGVSADEEVKDDPGILIHSCNFDHGLCGWIREKDSDLHWETARDPAGGQYLTVSAAAAPGGAAARLVLRLGHLMHSGDLCLSFRHKVTGLHSGTLQVFVRKHGTHGAALWGRNGGHGWRQTQITLRGADVKSVIFKGEKRRGHTGEIGLDDVSLKRGRC [K459A;K464A]
MAVLLAAVLASSLYLQVAADFDGRWPRQIVSSIGLCRYGGRIDCCWGWARQSWGQCQPVCQPQCKHGECVGPNKCKCHPGFAGKTCNQDLNECGLKPRPCKHRCMNTFGSYKCYCLNGYMLLPDGSCSSALSCSMANCQYGCDVVKGQVRCQCPSPGLQLAPDGRTCVDIDECATGRVSCPRFRQCVNTFGSYICKCHTGFDLMYIGGKYQCHDIDECSLGQHQCSSYARCYNIHGSYKCQCRDGYEGDGLNCVYIPKVMIEPSGPIHMPERNGTISKGDGGHANRIPDAGSTRWPLKTPYIPPVITNRPTSKPTTRPTPNPTPQPTPPPPPPLPTEPRTTPLPPTPERPSTRPTTIAPATSTTTRVITVDNRIQTDPQKPRGDVFIPRQPTNDLFEIFEIERGVSADEEVKDDPGILIHSCNFDHGLCGWIREKDSDLHWETARDPAGGQYLTVSAAKAPGGKAARLVLALGHLMHSGDLCLSFRHKVTGLHSGTLQVFVRKHGTHGAALWGRNGGHGWRQTQITLRGADVKSVIFKGEKRRGHTGEIGLDDVSLKRGRC [R471A]
MAVLLAAVLASSLYLQVAADFDGRWPRQIVSSIGLCRYGGRIDCCWGWARQSWGQCQPVCQPQCKHGECVGPNKCKCHPGFAGKTCNQDLNECGLKPRPCKHRCMNTFGSYKCYCLNGYMLLPDGSCSSALSCSMANCQYGCDVVKGQVRCQCPSPGLQLAPDGRTCVDIDECATGRVSCPRFRQCVNTFGSYICKCHTGFDLMYIGGKYQCHDIDECSLGQHQCSSYARCYNIHGSYKCQCRDGYEGDGLNCVYIPKVMIEPSGPIHMPERNGTISKGDGGHANRIPDAGSTRWPLKTPYIPPVITNRPTSKPTTRPTPNPTPQPTPPPPPPLPTEPRTTPLPPTPERPSTRPTTIAPATSTTTRVITVDNRIQTDPQKPRGDVFIPRQPTNDLFEIFEIERGVSADEEVKDDPGILIHSCNFDHGLCGWIREKDSDLHWETARDPAGGQYLTVSAAKAPGGKAARLVLRLGHLMHSGDLCLSFRHKVTGLHSGTLQVFVRKHGTHGAALWGRNGGHGWRQTQITLRGADVKSVIFKGEAAAGHTGEIGLDDVSLKRGRC [K541A;R542A;R543A]
